Reference: PMC5253658
pKd: −log10 of the molar value. Each block holds one substance with its values, some of them ahead of it.

What was measured:
TLR4 = TLR4 (UniProt Q9QUK6); assay: co-immunoprecipitation of SCIMP, TLR4 blot; conditions: reference: wild type SCIMP; sites Y96
TLR4 TIR domain, 670-835 = TLR4 TIR domain, 670-835 (UniProt Q9QUK6); assay: fluorescence titration of FAM-labelled peptide; conditions: reference: unphosphorylated Y96 peptide; sites Y96
[1] = target: FAM-labelled phosphorylated SCIMP Y96 peptide (amino acids 90-107) (mouse); assay: other fluorescence titration; FAM-labelled SCIMP Y96 peptides (aa 90-107) titrated with unlabelled TLR4-TIR; 25 °C, 30 mM Tris pH 7.4, 150 mM NaCl, 1 mM dithiothreitol; curve fit (Grafit)
[2] = target: FAM-labelled unphosphorylated SCIMP Y96 peptide (amino acids 90-107) (mouse); assay: as above

binding against the reference (TLR4): lost
Substance: SCIMP (from UniProt Q3UU41) Y96F

KD (TLR4 TIR domain, 670-835): stronger; reference >2.5 μM
Substance: SCIMP 90-107 (from UniProt Q3UU41) pY96 peptide

pKd [1]: 6.80 | pKd [2]: < 5.60
Substance: His-TLR4-TIR (cytoplasmic TIR domain of mouse TLR4, amino acids 670-835) (from UniProt Q9QUK6 670-835) (domain or fragment)
